Data on five molecules can be found in patent US20220281980A1 (Bristol-Myers Squibb, published 2022).

Assay [1] concerns the target T1, recombinant soluble human MICA*008 antigen (human, UniProt Q29983 24-307).
T1 construct: also called huIMICA-his allele *008; recombinant soluble MICA (allele 8)
T1 chain: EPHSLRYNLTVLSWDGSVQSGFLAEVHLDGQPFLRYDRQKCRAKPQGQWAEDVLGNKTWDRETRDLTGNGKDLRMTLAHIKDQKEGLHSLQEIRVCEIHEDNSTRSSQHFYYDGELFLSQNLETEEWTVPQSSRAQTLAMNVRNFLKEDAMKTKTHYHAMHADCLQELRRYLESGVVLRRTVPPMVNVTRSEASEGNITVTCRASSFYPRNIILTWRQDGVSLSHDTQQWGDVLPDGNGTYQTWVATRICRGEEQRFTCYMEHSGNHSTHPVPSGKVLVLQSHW
The assay is described as follows: BLI (Octet) sandwich binning on soluble MICA allele 8, row antibody captured; competitor (second antibody): MICA.2. On the procedure:
(§1) The binning experiments were performed on an Octet HTX instrument at 25° C. in HEPES buffered saline (10 mM HEPES pH 7.4, 150 mM NaCl, 0.05% v/v surfactant P20, and 1 mg/mL BSA). Anti-MICA/B antibodies and NKG2D-mFc were captured on anti-Fc tips and remaining capture sites were blocked with an excess of negative control IgG. Recombinant soluble MICA (allele 8) was bound and subsequent binding (“sandwiching”) of anti-MICA/B antibodies was tested.

Assay [2] addresses T1, recombinant soluble human MICA*008 …. Kind of assay: BLI (Octet) sandwich binning on soluble MICA allele 8, row antibody captured; competitor (second antibody): MICA.38. As for the experimental part: as §1
Assay [3] shares this target. Kind of assay: BLI (Octet) sandwich binning on soluble MICA allele 8, row antibody captured; competitor (second antibody): MICA.36. On the procedure:
as §1

For assay [4] the target is unchanged. The assay is described as follows: BLI (Octet) sandwich binning on soluble MICA allele 8, row antibody captured; competitor (second antibody): 24G11. As for the experimental part: as §1
In assay [5] the target is T2, recombinant soluble human MICA*004 antigen (human, UniProt Q29983 24-307).
T2 construct: also called huIMICA-his allele *004
T2 chain: T1 chain with L122V, G175S, T181R, I213T, T215S, W216T, R251Q
The assay is described as follows: SPR (Biacore 3000), antibody captured on Protein G chip, huMICA-his analyte; power of ten not given. As for the experimental part: (§2) Kinetics and affinity of anti-MICA/B antibodies MICA.2, 19G6, 16A5, and 71C2 towards human MICA alleles (huIMICA-his allele *002, *004, *008, and *009) were also determined on a BIACORE 3000® instrument using the following conditions: [0571] Running Buffer: HES-EP running buffer [0572] Chip: CM5 Protein G Chip Fc1: Blank. Fc2-4: ˜200Rus [0573] Ab: 5 ug/mL, 10 uL @ 10 uL/min [0574] Ag binding: 5 min association, 7 min dissociation @ 25 uL/min, [0575] Regeneration: Glycine 1.7, 10 uL @ 100 uL/min followed by 60s wash by HES-EP

Assay [6] has as its target T3, recombinant soluble human MICA*009 antigen (human, UniProt Q29983 24-307).
T3 construct: also called huIMICA-his allele *009
T3 chain: T1 chain with G175S, I213T, R251Q
The assay is described as above. On the procedure:
as §2

Assay [7] addresses T1, recombinant soluble human MICA*008 …. The description is as above. As for the experimental part: as §2
In assay [8] the target is T4, recombinant soluble human MICA*002 antigen (human, UniProt Q29983 24-307).
T4 construct: also called huIMICA-his allele *002
T4 chain: T1 chain with W14G, Y36C, V129M, E173K, S206G, R210W, I213T, T215S, R251Q
Described as above. On the procedure:
as §2

The target of assay [9] is T2, recombinant soluble human MICA*004 …. Kind of assay: SPR (Biacore 3000), antibody captured on Protein G chip, huMICA-his analyte. On the procedure:
as §2

In assay [10] the target is T3, recombinant soluble human MICA*009 …. The description is as above. As for the experimental part: as §2
Assay [11] addresses T1, recombinant soluble human MICA*008 …. Described as above. As for the experimental part: as §2
Assay [12] concerns the target T4, recombinant soluble human MICA*002 …. The assay is described as above. On the procedure:
as §2

Positions count from the first letter of the chain named.

B1: 24G11 (antibody, V domains shown)
VH: EVQLVQSGAEVKKPGESLKISCKGSGYSFTNYWIGWVRQMPGKGLEWLGIIHPGDSYTRYSPSFQGQVTISADKSISTAYLQWSSLKASDTAIYYCAREGIAATPFDYWGQGTLVTVSS
VL: EIVLTQSPATLSLSPGERATLSCRASQSVSSYLAWFQQKPGQAPRLLIYDASNRATGIPARFSGSGSGTDFTLTISSLEPEDFAVYYCQQRSNWPPTFGQGTKVEIK
notes: also called MICA.54; 24G11 (MICA.54)
Take B1: the “simultaneous binding (0 = no, 1 = yes)” value in [1] was determined as 1; in assay [2], 1; in [3], 0; in assay [4] it was 0.

B2: MICA.2 (antibody, human IgG1, kappa, V domains shown)
VH: EVQLVESGGGLVQPGGSLRLSCAASGFTFSTYSMNWVRQAPGKGLEWVSYISYRSRTIYYADSVKGRFTISRDNARNSLYLQMNSLRDEDTAVYYCARWGYGSGGFDYWGQGTLVTVSS
VL: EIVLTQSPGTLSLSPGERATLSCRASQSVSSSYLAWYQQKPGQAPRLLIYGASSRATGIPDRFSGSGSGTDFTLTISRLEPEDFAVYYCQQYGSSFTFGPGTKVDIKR
notes: 3F5 variable regions on human IgG1f and human kappa constant regions, made in CHO-S cells; also called 3F5; recombinant antibody of 3F5
In the case of B2, the off-rate constant (koff) in [5] was 0.0284 s⁻¹; in assay [6], 0.0232 s⁻¹; in [7], 0.0246 s⁻¹; in [8] it was 0.0104 s⁻¹. Further, the “simultaneous binding (0 = no, 1 = yes)” value in assay [1] was 0; in [2], 0; in [3], 1; in assay [4] it was 1. For the same molecule, the Kd in [9] came out at 54.6 nM; in assay [10], 61.5 nM; in assay [11], 40.5 nM; in [12] it was 27.5 nM.

B3: MICA.36 (antibody, V domains shown)
VH: QVQLVESGGGVVQPGRSLRLSCAASGFTFSNYAMHWVRQAPGEGLEWVALIWYDGSNKFYGDSVKGRFTISRDNSKNTLYLQMNSLSAEDTAVYYCAREGSGHYWGQGTLVTVSS
VL: AIQLTQSPSSLSASVGDRVTITCRASQGISSALAWYQQKPGKVPKSLIYDASSLESGVPSRFSGSGSGTDFTLTISSLQPEDFATYYCQQFNSYPITFGQGTRLEIK
notes: it says that the name implies no specific constant region; Radioiodinated in the Scatchard assay; also called MICA.36 antibody
In the case of B3, the “simultaneous binding (0 = no, 1 = yes)” value is 1 in [1], 1 in assay [2], 0 in assay [3] and 0 in assay [4].

B4: 19G6 (antibody, V domains shown)
VH: B3 VH
VL: B3 VL
notes: Hybridoma antibody from human IgG transgenic mice, parent of MICA.36; also called 19G6 mAb; hybridoma 19G6
Consider B4, for which the koff turned out to be 2.28 s⁻¹ in [5], 2.15 s⁻¹ in [6], 1.87 s⁻¹ in [7] and 8.14 s⁻¹ in [8]. For the same molecule, the Kd in assay [9] was found to be 9.78 nM; in assay [10] it was 13.7 nM; in [11], 5.23 nM; in assay [12], 219 nM.

B5: 71C2 (antibody, V domains shown)
VH: EVQLVESGGGLVQPGRSLRLSCAASGFTFNNYAMHWVRQAPGKGLEWVSGITWNSDSIGYADSVKGRFTISRDNAKNSLYLQMNSLRAEDTALYYCAKDSVLLWFGGMDVWGQGTTVTVSS
VL: not shown
notes: Hybridoma antibody
Regarding B5, the off-rate (koff) was 0.0303 s⁻¹ in assay [5], 0.0325 s⁻¹ in assay [6], 0.0109 s⁻¹ in [7] and 0.0116 s⁻¹ in assay [8]. The Kd in [9] came out at 262 nM; in [10], 1400 nM; in assay [11], 39.9 nM; in assay [12], 3010 nM.
